Target: His标签蛋白
Assay: ELISA titre of mouse ascites

B1: 杂交瘤细胞株4C9(CCTCC NO. C2015198)分泌的抗His标签蛋白单克隆抗体 (antibody, V domains shown)
VH: EVQLQESGAELMKPGASVKLSCKATGYTFTGYWIEWVKQRPGHGLEWIGEILPGSGSINHNENFKDKATFTADTSSNTAYMQLNSLTTEDSAVYFCAGGGGYWGQGTTLTVSS
VL: EIVITQTPLSLPVSLGDQASISCRSSRSIVHSNGNTYLEWYLQKPGQSPKLLIYKVSNRVSGVPDRFSGSGSGTDFTLKISRVEAEDLGVYYCFQGSHVPLTFGAGTKLELKR
ELISA效价: 1.28e+06
